According to US20090155236A1, “Peptide sequence for modulation of delta protein kinase c” (NATIONAL INSTITUES OF HEALTH (NIH), U.S. DEPT OF HEALTH AND …, priority 2004, published 2009):
One block for each molecule: values may come before it.

Assays:
delta PKC [1] = biological target: T1, delta PKC (Rattus norvegicus, UniProt P09215); assay: ELISA binding of annexin I and annexin V to delta PKC; conditions: FIG. 3
From the text: Annexin V binds with higher affinity to delta PKC than does annexin I (SEQ ID NO:9), as was shown in another study presented in FIG. 3. The percent binding of annexin 1 and annexin V to delta PKC (SEQ ID NO:3) in the presence and absence of calcium was investigated using ELISA (Example 2). […] In the presence of calcium the binding increased to 100%. In contrast, annexin I binding to delta PKC was unaffected by the presence of calcium and remained at about 70% both in the absence and presence of calcium.
(§1) Annexin V (SEQ ID NO:2) was diluted in 100 mM carbonate buffer (pH=9.6) and 100 μl of the diluted solution is placed in each well of a microtiter plate to give 0.1 μg Annexin V per well. The plate was incubated overnight at 4° C. After the overnight incubation, the plate was blocked for 1 hour at room temperature with 200 μL/well of 1% bovine serum albumin (BSA).
The interaction partners, delta PKC (SEQ ID NO:3), delta V1 PKC (SEQ ID NO:4), and delta V5 PKC (SEQ ID NO:5), were diluted in 100 mM HEPES. For the full length delta PKC, approximately 1.5 μg/well (1:20 dilution of cell lysate) was added. For the delta V1 and delta V5 PKC regions, between about 8000-80 ng/well was added, with an intermediate concentration being sufficient. Signal to noise increased dramatically at higher concentrations; therefore, 8 μg/well was preferred (this corresponds to 1:40 dilution of cell lysate). 100 μL/well, 1 hour w/shaking. Binding was accelerated at 37° C., however room temperature was also sufficient for binding.
After 1 hour shaking, the plate was washed three times with 100 mM HEPES (200 μL/well×3), with 5 minutes for each wash, with shaking.
Next, a primary antibody in milk (usually 1:1000 dilution) was added, followed by 1 hour at room temperature with shaking. The plate was then washed three times, (200 μL/well×3) with PBS Tween (0.1% Tween), with 5 minutes per wash with shaking.
Then, the secondary antibody diluted in PBS Tween (usually 1:1000) was added, followed by 1 hour at room temperature with shaking. The plate was then washed three times (200 μL/well×3) with PBS Tween, with 5 minutes per wash with shaking.
(§2) A developing reagent was added (100 μL/well): 1 PNPP tablet per 5 mL diluted buffer. 2N NaOH was added and the plate was allowed to develop and then read at 405 nm (single wavelength).
Target sequence in this assay (P09215 with tags, fused parts or gaps with the stated changes limits assumed): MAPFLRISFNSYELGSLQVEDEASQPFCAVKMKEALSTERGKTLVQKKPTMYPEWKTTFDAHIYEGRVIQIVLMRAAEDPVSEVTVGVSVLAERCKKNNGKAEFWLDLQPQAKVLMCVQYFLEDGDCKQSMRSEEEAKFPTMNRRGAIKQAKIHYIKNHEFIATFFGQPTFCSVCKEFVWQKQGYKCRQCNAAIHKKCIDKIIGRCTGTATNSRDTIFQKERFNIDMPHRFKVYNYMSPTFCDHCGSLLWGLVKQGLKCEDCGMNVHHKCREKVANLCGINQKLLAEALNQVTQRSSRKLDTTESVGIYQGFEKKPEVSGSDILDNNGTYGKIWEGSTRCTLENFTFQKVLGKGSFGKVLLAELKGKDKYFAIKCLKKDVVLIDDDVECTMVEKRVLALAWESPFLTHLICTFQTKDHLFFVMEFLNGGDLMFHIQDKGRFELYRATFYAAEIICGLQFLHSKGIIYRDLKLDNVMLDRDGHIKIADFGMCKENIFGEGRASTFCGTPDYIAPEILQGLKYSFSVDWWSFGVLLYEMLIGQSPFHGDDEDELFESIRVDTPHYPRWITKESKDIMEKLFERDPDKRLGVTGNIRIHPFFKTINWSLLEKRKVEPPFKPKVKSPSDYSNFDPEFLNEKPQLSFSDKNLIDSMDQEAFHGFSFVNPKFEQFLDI

delta PKC [2] = biological target: T1, delta PKC; assay: Overlay assay, immobilized annexin V with delta PKC, delta V1 and delta V5 domains; type: binding; parameters: made in house; host or cells: crude bacterial cell lysate (not clear whether this also covers the full-length protein)
From the text: (§3) Initial studies were designed to evaluate binding of annexin V to delta PKC, to certain regions of delta PKC (V1 and V5 regions), and to epsilon PKC. In a study detailed in Example 1, an overlay assay using immobilized annexin V (SEQ ID NO:2) and recombinant full-length delta PKC (SEQ ID NO:3), purified full-length epsilon PKC (SEQ ID NO:6), the recombinant V1 region of delta PKC (“V1 delta PKC”, SEQ ID NO:4), and the recombinant V5 region of delta PKC (“V5 delta PKC”, SEQ ID NO:5) was done. The V1 delta PKC peptide conjugated to […] to form a fusion protein, and the V5 delta PKC peptide was conjugated to glutathione-S-transferase to form a fusion protein.
10 μg of annexin V (SEQ ID NO:2) was separated on 12% SDS-PAGE gel and transferred to nitrocellulose, and then cut into strips. The strips were incubated with blocking buffer (50 mM Tris pH 7.5, 200 mM NaCl, 3% bovine serum albumin, 0.1% PEG20). The strips were then incubated in overlay buffer (50 mM Tris pH 7.5, 200 mM NaCl, 1% PEG20, 12 mM β-mercaptoethanol) in the presence where appropriate of 30 μg crude bacterial cell lysate containing fusion proteins of […] V1 PKC (MBP-δV1), glutathione-S-transferase-delta V5 PKC (GST-δV5), and full length sequences of delta (δPKC, SEQ ID NO:3) or rat purified epsilon (εPKC, SEQ ID NO:6) at 37° C. for 30 min. The strips where then washed with wash buffer (50 mM Tris pH 7.5, 200 mM NaCl, 0.1% PEG20, 12 mM O-mercaptoethanol), and then incubated with fixative (0.2% formaldehyde in PBS) and neutralizing solution (0.2M glycine in PBS) at room temperature 20 min each. After washing with buffer, the strips were probed with antibodies according to the overlay protein, and resulting bands visualized using ECL Western blotting.

epsilon PKC [3] = biological target: T2, epsilon PKC (Rattus norvegicus, UniProt P09216); assay: Overlay assay, immobilized annexin V with epsilon PKC; type: binding; conditions: FIG. 1
T2 sequence (P09216 1-737): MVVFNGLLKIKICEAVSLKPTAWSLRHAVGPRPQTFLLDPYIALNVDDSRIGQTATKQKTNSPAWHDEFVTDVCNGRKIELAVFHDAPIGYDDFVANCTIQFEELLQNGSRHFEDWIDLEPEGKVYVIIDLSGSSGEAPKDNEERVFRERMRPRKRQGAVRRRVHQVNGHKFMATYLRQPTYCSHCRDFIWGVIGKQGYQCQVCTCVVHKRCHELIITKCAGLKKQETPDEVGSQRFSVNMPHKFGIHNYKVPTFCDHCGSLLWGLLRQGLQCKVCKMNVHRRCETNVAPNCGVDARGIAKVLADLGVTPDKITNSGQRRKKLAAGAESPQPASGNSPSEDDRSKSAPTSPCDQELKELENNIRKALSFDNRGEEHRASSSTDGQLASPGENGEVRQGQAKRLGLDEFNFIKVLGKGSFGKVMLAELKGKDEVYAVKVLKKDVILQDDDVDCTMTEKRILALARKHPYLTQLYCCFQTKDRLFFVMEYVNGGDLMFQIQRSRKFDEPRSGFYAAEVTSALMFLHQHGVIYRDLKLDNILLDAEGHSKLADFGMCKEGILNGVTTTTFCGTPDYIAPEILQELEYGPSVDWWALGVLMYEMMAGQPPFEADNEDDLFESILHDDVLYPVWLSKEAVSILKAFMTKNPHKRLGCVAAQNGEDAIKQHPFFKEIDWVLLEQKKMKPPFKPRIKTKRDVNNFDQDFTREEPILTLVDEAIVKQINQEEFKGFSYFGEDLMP
From the text: as §3
10 μg of annexin V (SEQ ID NO:2) was separated on 12% SDS-PAGE gel and transferred to nitrocellulose, and then cut into strips. The strips were incubated with blocking buffer (50 mM Tris pH 7.5, 200 mM NaCl, 3% bovine serum albumin, 0.1% PEG20). The strips were then incubated in overlay buffer (50 mM Tris pH 7.5, 200 mM NaCl, 1% PEG20, 12 mM β-mercaptoethanol) in the presence where appropriate of 30 μg crude bacterial cell lysate containing fusion proteins of […] V1 PKC (MBP-δV1), glutathione-S-transferase-delta V5 PKC (GST-δV5), and full length sequences of delta (δPKC, SEQ ID NO:3) or rat purified epsilon (εPKC, SEQ ID NO:6) at 37° C. for 30 min. […]

delta PKC [4] = biological target: T3, delta PKC (Homo sapiens, UniProt Q05655); assay: In vitro kinase assay, histone phosphorylation by delta PKC; type: biochemical; conditions: in the presence of PS/DAG, FIG. 4A
T3 construct: purchased Panvera LLC, now Invitrogen Corporation
Procedure: (§4) In another study, the ability of annexin V to increase the catalytic activity of delta PKC in vitro was evaluated. Full-length, recombinant delta PKC (SEQ ID NO:3) and epsilon PKC (SEQ ID NO:6) were separately incubated in the presence of kinase buffer, ATP, or histone, as described in Example 3. Activators of PKC, phosphatidylserine (PS) and diacylglycerol (DAG), were added along with annexin V, JTV-519, a 1,4 benzothiazepine derivative that activates delta PKC (Inagaki, K. et al., Circulation, 101:797 (2000)), or a mixture of annexin V and JTV-519.
(§5) 200 ng of pure delta PKC or epsilon PKC (Panvera LLC, now Invitrogen Corporation, Carlsbad, Calif.) were incubated in 100 μL kinase buffer (20 mM Tris pH 7.4, 50 mM MgCl2, 0.3 μCi/reaction [γ-^32P]ATP (Amersham Biosciences), 9 μM/reaction ATP (Sigma), 30 μg/reaction myelin basic protein or histone A1 (Sigma); 100 μM lipid vesicle mixture (90% phosphatidylserine (PS): 10% diacylglycerol (DAG)), 1 mM CaCl2, 1 μM JTV519, and/or 20 ng of Annexin V/reaction were added, where applicable. The kinase reaction was stopped by the addition of SDS sample buffer, and extent of histone phosphorylation assessed after separation on 15% SDS-PAGE and transfer onto nitrocellulose membrane by autoradiography.

delta V1 PKC = biological target: T4, delta V1 PKC (Rattus norvegicus, UniProt P09215); assay: ELISA binding of annexin V protein to delta V1 PKC; conditions: FIG. 2
T4 construct: MBP (printed as 'myelin basic protein'); made in house
From the text: In another study, binding of annexin V protein to the V1 regions of epsilon PKC (SEQ ID NO:7) and of delta PKC (SEQ ID NO:4) was examined using ELISA, as described in Example 2. […] Binding of annexin V protein (SEQ ID NO:2) to delta V1 PKC in the absence of calcium was about 55%. In the presence of calcium binding was increased to 100%. […] Thus, annexin V protein binds to full-length PCK and to the V1 and V5 domains of delta PKC in vitro in an isozyme specific manner.
as §1
The interaction partners, delta PKC (SEQ ID NO:3), delta V1 PKC (SEQ ID NO:4), and delta V5 PKC (SEQ ID NO:5), were diluted in 100 mM HEPES. For the full length delta PKC, approximately 1.5 μg/well (1:20 dilution of cell lysate) was added. For the delta V1 and delta V5 PKC regions, between about 8000-80 ng/well was added, with an intermediate concentration being sufficient. […]
as §2

epsilon PKC [5] = biological target: T5, epsilon PKC (Homo sapiens, UniProt Q02156); assay: In vitro kinase assay, histone phosphorylation by epsilon PKC; type: biochemical; conditions: in the presence of PS/DAG, FIG. 4B
T5 construct: purchased Panvera LLC, now Invitrogen Corporation
T5 sequence (Q02156 with tags, fused parts or gaps DEL296-297/G298R): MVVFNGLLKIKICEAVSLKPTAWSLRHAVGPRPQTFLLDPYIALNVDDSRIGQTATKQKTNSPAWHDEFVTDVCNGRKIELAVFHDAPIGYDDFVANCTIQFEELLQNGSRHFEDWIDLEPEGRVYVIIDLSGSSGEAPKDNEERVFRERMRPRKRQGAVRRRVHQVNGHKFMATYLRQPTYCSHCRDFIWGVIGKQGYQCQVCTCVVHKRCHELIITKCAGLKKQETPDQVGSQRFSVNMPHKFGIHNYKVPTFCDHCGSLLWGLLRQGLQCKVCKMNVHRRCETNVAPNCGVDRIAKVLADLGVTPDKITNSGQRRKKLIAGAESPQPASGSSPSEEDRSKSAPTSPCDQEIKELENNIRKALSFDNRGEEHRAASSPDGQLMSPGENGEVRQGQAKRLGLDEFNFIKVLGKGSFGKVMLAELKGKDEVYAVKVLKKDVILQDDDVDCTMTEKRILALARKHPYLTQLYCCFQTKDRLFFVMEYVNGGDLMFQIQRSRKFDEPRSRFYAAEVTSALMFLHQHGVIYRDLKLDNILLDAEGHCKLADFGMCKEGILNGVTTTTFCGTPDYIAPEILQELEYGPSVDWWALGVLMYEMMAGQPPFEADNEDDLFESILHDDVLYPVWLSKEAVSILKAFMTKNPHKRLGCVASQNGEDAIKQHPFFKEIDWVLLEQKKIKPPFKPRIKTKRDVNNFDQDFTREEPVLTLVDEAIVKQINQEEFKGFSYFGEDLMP
Procedure: as §4, §5

T4 sequence (P09215 1-160): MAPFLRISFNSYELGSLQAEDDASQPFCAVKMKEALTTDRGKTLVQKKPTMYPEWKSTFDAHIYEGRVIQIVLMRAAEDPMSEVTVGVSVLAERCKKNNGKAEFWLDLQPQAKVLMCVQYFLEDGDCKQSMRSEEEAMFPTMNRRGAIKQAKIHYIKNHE
T3 sequence (Q05655 whole entry): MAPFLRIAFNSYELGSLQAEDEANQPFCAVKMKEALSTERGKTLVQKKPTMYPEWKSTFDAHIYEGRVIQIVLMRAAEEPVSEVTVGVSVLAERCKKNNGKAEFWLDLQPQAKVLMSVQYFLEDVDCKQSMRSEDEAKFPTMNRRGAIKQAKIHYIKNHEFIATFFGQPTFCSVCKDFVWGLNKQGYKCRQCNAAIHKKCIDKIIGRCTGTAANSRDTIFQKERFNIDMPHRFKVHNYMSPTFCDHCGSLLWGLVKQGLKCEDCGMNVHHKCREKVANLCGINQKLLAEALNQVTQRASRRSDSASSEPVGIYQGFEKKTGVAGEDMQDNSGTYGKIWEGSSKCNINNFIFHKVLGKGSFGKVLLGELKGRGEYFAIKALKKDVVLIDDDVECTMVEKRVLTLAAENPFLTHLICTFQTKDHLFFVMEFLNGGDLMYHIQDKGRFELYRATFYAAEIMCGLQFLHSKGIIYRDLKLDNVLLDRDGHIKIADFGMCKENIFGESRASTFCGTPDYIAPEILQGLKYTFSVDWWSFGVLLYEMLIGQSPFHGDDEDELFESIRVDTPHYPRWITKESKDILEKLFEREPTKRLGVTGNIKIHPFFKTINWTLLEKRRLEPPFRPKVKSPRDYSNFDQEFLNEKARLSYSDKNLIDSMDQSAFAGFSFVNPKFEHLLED

percent binding to delta PKC (delta PKC [1]; absence of calcium): about 70% | percent binding to delta PKC (delta PKC [1]; presence of calcium): about 70%
B1: annexin I: human annexin I protein (protein, listed as Homo sapiens)
chain: MAMVSEFLKQAWFIENEEQEYVQTVKSSKGGPGSAVSPYPTFNPSSDVAALHKAIMVKGVDEATIIDILTKRNNAQRQQIKAAYLQETGKPLDETLKKALTGHLEEVVLALLKTPAQFDADELRAAMKGLGTDEDTLIEILASRTNKEIRDINRVYREELKRDLAKDITSDTSGDFRNALLSLAKGDRSEDFGVNEDLADSDARALYEAGERRKGTDVNVFNTILTTRSYPQLRRVFQKYTKYSKHDMNKVLDLELKGDIEKCLTAIVKCATSKPAFFAEKLHQAMKGVGTRHKALIRIMVSRSEIDMNDIKAFYQKMYGISLCQAILDETKGDYEKILVALCGGN

binding of V5 domain of delta PKC to annexin V (delta PKC [2]; FIG. 1, GST-delta V5 fusion protein): bound to annexin V | binding of V1 domain of delta PKC to annexin V (delta PKC [2]; FIG. 1, MBP-delta V1 fusion protein): bound to annexin V | binding of full-length delta PKC to annexin V (delta PKC [2]; FIG. 1, full-length delta PKC): bound to annexin V | binding of epsilon PKC to annexin V (epsilon PKC [3]): did not bind | percent binding to delta PKC (delta PKC [1]; absence of calcium): about 75% | percent binding to delta PKC (delta PKC [1]; presence of calcium): 100% | percent binding to delta V1 PKC (delta V1 PKC; absence of calcium): about 55% | percent binding to delta V1 PKC (delta V1 PKC; presence of calcium): 100%
B2: annexin V: human annexin V protein (protein, listed as Homo sapiens)
chain: MAQVLRGTVTDFPGFDERADAETLRKAMKGLGTDEESILTLLTSRSNAQRQEISAAFKTLFGRDLLDDLKSELTGKFEKLIVALMKPSRLYDAYELKHALKGAGTNEKVLTEIIASRTPEELRAIKQVYEEEYGSSLEDDVVGDTSGYYQRMLVVLLQANRDPDAGIDEAQVEQDAQALFQAGELKWGTDEEKFITIFGTRSVSHLRKVFDKYMTISGFQIEETIDRETSGNLEQLLLAVVKSIRSIPAYLAETLYYAMKGAGTDDHTLIRVMVSRSEIDLFNIRKEFRKNFATSKMIKGDTSGDYKKALLLLCGEDD
catalytic activity of delta PKC (histone phosphorylation) (delta PKC [4]): increases the catalytic activity of delta PKC | activity of epsilon PKC (histone phosphorylation) (epsilon PKC [5]): does not increase the activity of epsilon PKC
